Experimental data taken from publication PMC11063902.
Like-named read-outs stand apart in the source and are kept apart here. Values belong to the substance of their own block, whether it stands above or below them.

Key:
[1] = molecular target: eIF4A•eIF4G_(682-1104)-Fl (UniProt Q04637); experiment: fluorescence polarisation; as a3 with 200 nM eIF3 added (subsaturating, ~50% of eIF4G-Fl bound); 20 nM eIF4G-Fl, 3 uM eIF4A, 40S subunit titrated; 0.5 mM ATP/MgCl2
[2] = molecular target: eIF4A•eIF4G_(711-1104)-Fl (UniProt Q04637); experiment: as above
[3] = molecular target: eIF4A•eIF4G_(682-1104)-Fl (UniProt Q04637); experiment: fluorescence polarisation; 20 nM eIF4G-Fl with 3 uM eIF4A, 40S subunit titrated; Binding Buffer (20 mM Tris acetate pH 7.5, 70 mM KCl, 2 mM free Mg2+, 0.1 mM spermidine, 1 mM DTT, 10% glycerol, 0.1 mg/ml BSA) with 0.5 mM ATP/MgCl2; 10 min ice, 5 min 30 °C, 10 min room temperature
[4] = molecular target: eIF4A•eIF4G_(711-1104)-Fl (UniProt Q04637); experiment: as above
[5] = system: eIF4G682-1104 (human); experiment: fluorescence anisotropy; conditions: uncapped; 20 mM Tris acetate pH 7.5, 70 mM KCl, 2 mM free Mg2+ (Mg acetate), 0.1 mM spermidine, 1 mM DTT, 10% glycerol, 0.1 mg/ml BSA; 20 nM RNA; 30 °C for 5 min
[6] = system: eIF4G721-1104 (human); experiment: fluorescence anisotropy; conditions: text gives 4.60 ± 0.47 uM; uncapped; 20 mM Tris acetate pH 7.5, 70 mM KCl, 2 mM free Mg2+ (Mg acetate), 0.1 mM spermidine, 1 mM DTT, 10% glycerol, 0.1 mg/ml …; 20 nM RNA; 30 °C for 5 min
[7] = molecular target: eIF4G_(721-1104)-Fl (S1041C) (human) (UniProt Q04637); experiment: fluorescence polarisation; eIF4G_(721-1104)-Fl (fluorescein at S1041C) titrated with eIF3 or eIF3-PR∗; carried out as described previously (ref. 7)
[8] = molecular target: eIF4G_(721-1104)-Fl (S1041C) (human) (UniProt Q04637); experiment: as above; remark: listed apart in the source

KD with 200 nM eIF3 [1]: 76 nM | KD with 200 nM eIF3 [2]: 248 nM | Kd [3]: 129 nM | Kd [4]: 563 nM
Substance: 40S ribosomal subunit (complex)

Substance: CAA-42-FL (42-mer RNA-Fl)
Kd [5]: 463 nM | Kd [6]: 4600 nM

Kd [7]: 124 nM | Kd [8]: 81 nM
Substance: eIF3 (intact multi-subunit complex) (from UniProt O15371 1-548; Q99613 1-913; O75822 1-258)

Substance: eIF3-PR∗ (eIF3 cleaved by HIV-1 PR and purified by size exclusion chromatography) (from UniProt O15371 1-114; Q99613 1-913) (complex)
Kd [7]: 75 nM | Kd [8]: 127 nM
